According to patent US20250304621A1, “POLYPEPTIDE FOR SPECIFICALLY BLOCKING BINDING OF ACVR1C TO GREM1 AND USE THEREOF” (The Seventh Affiliated Hospital, Sun Yat-Sen University, priority 2024, published 2025):
“Also recorded” adds a separate entry of the source.

T1: binding of GREM1 to ACVR1C (Homo sapiens, UniProt O60565)
T1 construct: his-tagged full-length GREM1 were purified; His; made in house
T1 sequence (O60565 25-184): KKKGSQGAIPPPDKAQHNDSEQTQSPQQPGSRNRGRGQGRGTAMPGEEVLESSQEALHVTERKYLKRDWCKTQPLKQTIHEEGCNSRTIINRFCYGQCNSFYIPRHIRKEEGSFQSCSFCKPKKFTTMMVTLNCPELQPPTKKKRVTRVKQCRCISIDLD

T2: GREM1 (Homo sapiens (Human), UniProt O60565 25-184, limits assumed)
T2 construct: also called Gremlin1
T2 sequence: T1 sequence (O60565 25-184)


Legend:
[1] = target: T1, binding of GREM1 to ACVR1C; assay: Pull-down experiment: Fc-tagged ACVR1C-ECD and his-tagged full-length GREM1 with ACVR1C peptide; settings: purified Fc-tagged ACVR1C-ECD (AA 1-113) and his-tagged full-length GREM1; FIG. 11b
Procedure: The Fc-tagged ACVR1C extracellular domain (ACVR1C-ECD, AA 1-113) and his-tagged full-length GREM1 were purified, and ACVR1C peptide (with an amino acid sequence of TECCFTDFCNNITLHLPTA, SEQ ID NO: 7) which blocked the binding of ACVR1C to GREM1 ligand thereof was synthesized (FIG. 11a). The Pull-down experiment was performed.

[2] = system: HCT116-luc cells (colorectal liver metastasis); assay: Colorectal liver metastasis model: HCT116-luc cells injected through the spleen, live bioluminescence imaging; type: in vivo; settings: NOG mice, PLV-GREM1 HCT116-luc cells via spleen, 10 mg/kg by tail vein once every 2 days
Procedure: Grouping: a total of 18 6-week-old NOG mice were taken and randomized into 3 groups 5 days after adaptive feeding: control group (PLV), GREM1 overexpression group (PLV-GREM1) and ACVR1C polypeptide treatment group (PLV-GREM1+ACVR1C peptide), 6/group.
Modeling: HCT116-luc cell suspensions were prepared with cell densities adjusted to 1×10^7 cells/mL. The mice to be treated were taken out and anesthetized by intraperitoneal injection of 2% sodium pentobarbital at a dose of 45 μL/20 g. After about 5 minutes, the mice began to enter a quiet state. White gauze was spread on a mouse board, the mice were placed in left lying position, the abdominal hair of the mice was shaved, and the abdominal side was disinfected from the neck to the groin with alcohol cotton pads. The skin was cut open 1-2 cm below the lower edge of the left costal arch to expose the abdominal wall muscles. The abdominal wall muscles were pulled with pointed forceps to avoid the spleen in the abdominal cavity. The abdominal wall muscles were cut open to expose the internal organs. The pancreas was gently pulled with circular forceps, and the spleen was pulled out. […]

GREM1 = target: T2, GREM1; assay: co-IP in HCT116 cells
From the text: To further describe the binding sites between GREM1 and ACVR1C, a truncated GREM1 and ACVR1C extracellular domain (ACVR1C-ECD) is constructed.

Molecule	inhibition of the binding of GREM1 to ACVR1C (pull-down) [1]	inhibition of liver metastasis of colorectal cancer cells (bioluminescence imaging) ([2]; FIG. 12)	inhibition of liver metastasis of colorectal cancer cells (bioluminescence imaging) ([2]; FIG. 12, listed as polypeptide)	binding result (GREM1)
TECCFTDFCNNITLHLPTA [ACVR1C peptide]	competitively inhibited the binding of GREM1 to ACVR1C; also recorded: can interfere or block the binding of GREM1 to ACVR1C	significantly lower than that in a control group	significantly inhibits liver metastasis of colorectal cancer cells; also recorded: significantly inhibit the colorectal cancer metastasis	–
ELSPGLKCVCLLCDSSNFTCQTEGACWASVMLTNGKEQVIKSCVSLP (receptor) [truncated ACVR1C-ECD lacking amino acids 68-113 (A4)]	–	–	–	no binding
